Measured values published in patent US20260218174.

Tests used:
Assay in all cases: cleavage_in_vitro
[1] = tested on: OMNI-XL-16 (unidentified metagenomic bacterium); details: TXTL; PAM NARNACVN
[2] = tested on: OMNI-XL-18 (unidentified metagenomic bacterium); details: TXTL; PAM NGYCCNNN
[3] = tested on: OMNI-XL-12 (unidentified metagenomic bacterium); details: TXTL; PAM relaxed NRNNCCNN, strict NRTNCCRN
[4] = tested on: OMNI-XL-19 (unidentified metagenomic bacterium); details: TXTL; PAM NRGNRCNN

Sequence of OMNI-XL-18 (unidentified metagenomic bacterium) (chain, as listed by the source): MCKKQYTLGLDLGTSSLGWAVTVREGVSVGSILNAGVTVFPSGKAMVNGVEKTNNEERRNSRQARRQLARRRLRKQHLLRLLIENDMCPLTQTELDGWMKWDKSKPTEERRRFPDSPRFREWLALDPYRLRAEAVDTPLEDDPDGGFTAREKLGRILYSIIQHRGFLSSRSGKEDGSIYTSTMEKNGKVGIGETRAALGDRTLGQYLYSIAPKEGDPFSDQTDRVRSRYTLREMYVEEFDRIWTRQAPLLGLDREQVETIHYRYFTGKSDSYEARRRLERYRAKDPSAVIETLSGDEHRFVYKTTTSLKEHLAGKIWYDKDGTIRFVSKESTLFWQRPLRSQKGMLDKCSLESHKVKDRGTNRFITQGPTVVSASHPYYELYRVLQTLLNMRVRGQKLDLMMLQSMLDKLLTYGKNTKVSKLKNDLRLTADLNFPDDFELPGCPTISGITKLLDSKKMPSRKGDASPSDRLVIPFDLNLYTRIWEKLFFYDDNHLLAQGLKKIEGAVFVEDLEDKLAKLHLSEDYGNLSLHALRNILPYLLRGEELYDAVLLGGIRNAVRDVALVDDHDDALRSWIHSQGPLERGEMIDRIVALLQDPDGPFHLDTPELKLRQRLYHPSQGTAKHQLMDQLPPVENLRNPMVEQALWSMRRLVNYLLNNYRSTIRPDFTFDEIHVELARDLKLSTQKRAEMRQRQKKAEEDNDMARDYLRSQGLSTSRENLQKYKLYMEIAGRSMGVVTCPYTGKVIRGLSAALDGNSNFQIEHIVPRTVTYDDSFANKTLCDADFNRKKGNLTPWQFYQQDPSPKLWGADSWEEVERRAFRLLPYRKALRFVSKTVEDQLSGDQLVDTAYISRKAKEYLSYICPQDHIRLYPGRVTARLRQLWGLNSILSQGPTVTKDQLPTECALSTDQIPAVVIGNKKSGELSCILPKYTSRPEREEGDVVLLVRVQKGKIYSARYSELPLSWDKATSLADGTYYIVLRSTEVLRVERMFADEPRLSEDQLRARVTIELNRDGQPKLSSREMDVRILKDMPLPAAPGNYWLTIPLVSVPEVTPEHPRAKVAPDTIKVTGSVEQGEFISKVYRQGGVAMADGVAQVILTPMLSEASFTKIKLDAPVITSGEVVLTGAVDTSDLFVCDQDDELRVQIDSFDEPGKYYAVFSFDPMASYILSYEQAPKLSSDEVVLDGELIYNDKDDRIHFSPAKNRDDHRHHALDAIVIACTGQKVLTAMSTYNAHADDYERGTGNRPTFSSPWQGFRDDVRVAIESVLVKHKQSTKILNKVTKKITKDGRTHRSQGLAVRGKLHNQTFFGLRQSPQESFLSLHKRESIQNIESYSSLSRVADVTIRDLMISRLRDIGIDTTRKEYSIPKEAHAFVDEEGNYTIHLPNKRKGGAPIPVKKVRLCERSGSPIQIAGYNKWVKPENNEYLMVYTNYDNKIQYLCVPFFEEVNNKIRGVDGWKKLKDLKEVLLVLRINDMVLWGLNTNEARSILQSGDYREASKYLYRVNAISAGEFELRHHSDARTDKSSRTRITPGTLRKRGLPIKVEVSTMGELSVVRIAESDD
Sequence of OMNI-XL-12 (unidentified metagenomic bacterium) (chain, as listed by the source): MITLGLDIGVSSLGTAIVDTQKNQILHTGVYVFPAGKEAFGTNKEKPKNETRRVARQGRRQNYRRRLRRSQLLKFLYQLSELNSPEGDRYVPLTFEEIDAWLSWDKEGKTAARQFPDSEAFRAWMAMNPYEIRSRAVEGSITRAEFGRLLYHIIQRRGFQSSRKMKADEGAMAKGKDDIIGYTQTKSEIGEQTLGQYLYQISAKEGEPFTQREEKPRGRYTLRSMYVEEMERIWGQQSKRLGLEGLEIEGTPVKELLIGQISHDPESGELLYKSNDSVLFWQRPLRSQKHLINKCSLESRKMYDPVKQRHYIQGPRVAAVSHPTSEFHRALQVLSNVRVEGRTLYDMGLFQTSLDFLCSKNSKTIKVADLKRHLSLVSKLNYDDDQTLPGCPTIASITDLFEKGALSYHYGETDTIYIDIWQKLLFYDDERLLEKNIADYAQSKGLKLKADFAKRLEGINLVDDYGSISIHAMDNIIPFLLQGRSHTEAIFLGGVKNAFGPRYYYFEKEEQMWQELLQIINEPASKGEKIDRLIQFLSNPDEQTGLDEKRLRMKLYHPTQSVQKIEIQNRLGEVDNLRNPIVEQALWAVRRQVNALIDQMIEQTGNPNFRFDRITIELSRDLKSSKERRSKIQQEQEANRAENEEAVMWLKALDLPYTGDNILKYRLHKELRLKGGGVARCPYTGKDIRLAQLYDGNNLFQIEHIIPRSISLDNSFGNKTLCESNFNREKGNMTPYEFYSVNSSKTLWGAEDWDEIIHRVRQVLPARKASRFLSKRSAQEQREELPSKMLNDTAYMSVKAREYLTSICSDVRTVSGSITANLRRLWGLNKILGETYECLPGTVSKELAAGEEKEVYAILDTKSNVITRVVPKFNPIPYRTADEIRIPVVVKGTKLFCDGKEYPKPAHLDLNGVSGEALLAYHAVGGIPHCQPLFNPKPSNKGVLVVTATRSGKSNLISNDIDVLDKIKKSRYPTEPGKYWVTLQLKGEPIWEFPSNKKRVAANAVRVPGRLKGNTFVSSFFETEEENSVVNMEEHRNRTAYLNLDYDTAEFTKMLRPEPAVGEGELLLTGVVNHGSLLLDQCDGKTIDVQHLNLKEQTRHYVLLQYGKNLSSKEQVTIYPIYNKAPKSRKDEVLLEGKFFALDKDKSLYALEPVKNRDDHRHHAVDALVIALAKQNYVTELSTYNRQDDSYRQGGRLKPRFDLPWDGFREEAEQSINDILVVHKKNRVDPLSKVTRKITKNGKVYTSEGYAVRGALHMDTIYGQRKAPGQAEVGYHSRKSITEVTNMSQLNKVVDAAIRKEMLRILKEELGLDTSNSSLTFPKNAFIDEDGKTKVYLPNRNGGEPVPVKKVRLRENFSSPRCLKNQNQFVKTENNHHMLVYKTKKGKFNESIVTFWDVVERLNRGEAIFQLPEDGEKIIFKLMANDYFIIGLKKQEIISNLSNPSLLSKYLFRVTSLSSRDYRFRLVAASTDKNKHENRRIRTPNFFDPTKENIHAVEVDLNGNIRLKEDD
Sequence of OMNI-XL-16 (unidentified metagenomic bacterium) (chain, as listed by the source): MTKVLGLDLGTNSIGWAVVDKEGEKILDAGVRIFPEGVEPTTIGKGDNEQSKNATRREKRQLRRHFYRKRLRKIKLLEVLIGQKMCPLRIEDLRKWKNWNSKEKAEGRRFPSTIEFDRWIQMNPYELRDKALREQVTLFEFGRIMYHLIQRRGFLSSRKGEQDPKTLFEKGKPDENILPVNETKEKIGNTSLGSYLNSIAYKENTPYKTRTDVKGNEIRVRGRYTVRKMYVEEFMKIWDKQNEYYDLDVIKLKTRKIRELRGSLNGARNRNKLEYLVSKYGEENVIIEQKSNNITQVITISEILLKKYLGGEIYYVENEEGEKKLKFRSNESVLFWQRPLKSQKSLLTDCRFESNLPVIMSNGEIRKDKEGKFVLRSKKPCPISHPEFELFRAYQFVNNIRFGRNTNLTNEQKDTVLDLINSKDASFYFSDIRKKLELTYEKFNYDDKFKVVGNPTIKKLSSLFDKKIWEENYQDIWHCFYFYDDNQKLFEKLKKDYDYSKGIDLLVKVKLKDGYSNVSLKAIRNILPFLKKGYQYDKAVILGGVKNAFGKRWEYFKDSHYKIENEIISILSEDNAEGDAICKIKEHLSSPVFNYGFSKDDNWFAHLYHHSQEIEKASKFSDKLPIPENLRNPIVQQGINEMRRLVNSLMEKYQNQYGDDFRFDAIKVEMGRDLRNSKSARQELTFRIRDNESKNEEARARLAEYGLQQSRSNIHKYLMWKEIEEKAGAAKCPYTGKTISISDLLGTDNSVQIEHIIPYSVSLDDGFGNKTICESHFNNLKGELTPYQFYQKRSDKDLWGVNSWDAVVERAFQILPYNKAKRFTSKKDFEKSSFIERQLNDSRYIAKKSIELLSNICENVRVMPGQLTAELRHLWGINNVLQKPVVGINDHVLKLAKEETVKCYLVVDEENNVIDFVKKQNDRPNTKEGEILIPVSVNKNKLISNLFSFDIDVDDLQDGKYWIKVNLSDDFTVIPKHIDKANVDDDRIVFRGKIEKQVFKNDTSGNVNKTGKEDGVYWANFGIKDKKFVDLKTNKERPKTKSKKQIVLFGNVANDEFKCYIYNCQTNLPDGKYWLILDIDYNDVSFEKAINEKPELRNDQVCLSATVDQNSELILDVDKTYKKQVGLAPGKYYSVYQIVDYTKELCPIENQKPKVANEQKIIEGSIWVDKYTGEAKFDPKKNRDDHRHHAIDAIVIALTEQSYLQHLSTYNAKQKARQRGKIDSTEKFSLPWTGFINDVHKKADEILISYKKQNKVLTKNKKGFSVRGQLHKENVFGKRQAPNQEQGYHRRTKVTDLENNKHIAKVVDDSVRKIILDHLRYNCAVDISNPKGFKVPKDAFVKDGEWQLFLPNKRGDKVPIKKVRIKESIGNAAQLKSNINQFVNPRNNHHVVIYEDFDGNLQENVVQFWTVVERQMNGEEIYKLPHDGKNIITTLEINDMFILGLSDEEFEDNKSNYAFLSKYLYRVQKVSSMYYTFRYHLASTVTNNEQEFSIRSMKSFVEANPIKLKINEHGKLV

Row | Sequence | activity (1-depletion score) [2] | activity (1-depletion score) [3] | other results
1 | GGAAGAGCAGAGCCUUGGUCUCGUUGUGGUUUGAUGUAAUUGAAAAAAUUACAUCUUAUCACAAUAAGGCUAUAUGCCGAAGGAUAAAAUGUCCUAUACUCCUGCUUCGGUAGGAGUUUUUUU / GGAAGAGCAGAGCCTTGGTCTCNNNNNNNN / NNNNNNNNGAGACCAAGGCTCTGCTCTTCC [OMNI-XL-16 sgRNA V1 T2 ; T2 protospacer 8N PAM library] |  |  | activity (1-depletion score) [1]: 0.64
2 | GGAAGAGCAGAGCCUUGGUCUCGUUGUGGAUUGAUCAGUUUGAAAAAACGAUCUCUUCACAACAAGGCUAUAUGCCGUAGUUGAUUCUACGCUCCCGCUUCGGCGGGAGCUUUUUUU / GGAAGAGCAGAGCCTTGGTCTCNNNNNNNN / NNNNNNNNGAGACCAAGGCTCTGCTCTTCC [OMNI-XL-18 sgRNA V2 T2 ; T2 protospacer 8N PAM library] | 0.98 |  | 
3 | GGAAGAGCAGAGCCUUGGUCUCGUUGUGGAUUGAUCAGUUUGAAAAAACGAUCUUUUCACAACAAGGCUAUAUGCCGUAGUUGAUUCUACGCUCCCGCUUCGGCGGGAGCUUUUUUU / GGAAGAGCAGAGCCTTGGTCTCNNNNNNNN / NNNNNNNNGAGACCAAGGCTCTGCTCTTCC [OMNI-XL-18 sgRNA V1 T2 ; T2 protospacer 8N PAM library] | 0.97 |  | 
4 | GGAAGAGCAGAGCCUUGGUCUCGUUGUGGAUUGAUUACUUUGAAAAAAGUAAUCUUUUCAUAACAAGGCUAUAUGCCGAAGUUAUUACGGCUCCACUUCGGUGGAGCCUUUUUU / GGAAGAGCAGAGCCTTGGTCTCNNNNNNNN / NNNNNNNNGAGACCAAGGCTCTGCTCTTCC [OMNI-XL-12 sgRNA V1 T2 ; T2 protospacer 8N PAM library] |  | 0.98 | 
5 | GGAAGAGCAGAGCCUUGGUCUCGUUGUGGAUUGAUCAGUUUGAAAAAACGAUCUUUUCACAACAAGGCUAUAUGCCGUAGUUGAUUCUACGCUCCCGCUUCGGCGGGAGCUUUUUUUU / GGAAGAGCAGAGCCTTGGTCTCNNNNNNNN / NNNNNNNNGAGACCAAGGCTCTGCTCTTCC [OMNI-XL-19 sgRNA V1 T2 ; T2 protospacer 8N PAM library] |  |  | activity (1-depletion score) [4]: 0.94
6 | GGAAGAGCAGAGCCUUGGUCUCGUUGUGGAUUGAUUACUUUGAAAAAAGUAAUCUCUUCAUAACAAGGCUAUAUGCCGAAGUUAUUACGGCUCCACUUCGGUGGAGCCUUUUUU / GGAAGAGCAGAGCCTTGGTCTCNNNNNNNN / NNNNNNNNGAGACCAAGGCTCTGCTCTTCC [OMNI-XL-12 sgRNA V2 T2 ; T2 protospacer 8N PAM library] |  | 0.97 | 
